Experimental data published in the Immune Epitope Database (IEDB).

Experiments:
Test in all cases: IEDB peptide-MHC binding, purified MHC/competitive/radioactivity; ≥ and ≤ were set here for values at or beyond the usual limits of such assays
Conditions in all cases: source organism: Bordetella pertussis
HLA-B*57:01 = target: HLA-B*57:01
HLA-B*35:01 = target: HLA-B*35:01
HLA-B*53:01 = target: HLA-B*53:01
HLA-B*44:03 = target: HLA-B*44:03
HLA-A*02:01 = target: HLA-A*02:01

| Sequence | IC50 (HLA-B*57:01) [µM] | IC50 (HLA-B*53:01) [µM] | further results |
| --- | --- | --- | --- |
| KAGKLSATG | 45.5 |  |  |
| SVAPNALAW |  | 0.983 | IC50 (HLA-B*35:01): 56.3 µM |
| YTLRYLASY | 0.00076 |  | IC50 (HLA-B*35:01): 3.52 µM |
| LSSPSAITV | ≥ 70.4 |  |  |
| CPSSLGNGV |  | 26.4 |  |
| QADRDFVWY |  | 27.2 | IC50 (HLA-B*44:03): 37.7 µM |
| LLHHILPIL |  |  | IC50 (HLA-A*02:01): 1.47 µM |
| KSYTLRYLA | 0.263 |  |  |
| TSPYDGKYW | ≥ 70.4 |  |  |
| RAGLSPATW |  | 27.2 |  |
| RGFAQRQQL | 54.3 |  |  |
| DAGHEHDTW | 32.9 |  |  |
| YFEPGPTTD |  | 69.9 |  |
| EATEGDATL |  | 46.1 | IC50 (HLA-B*35:01): 69.9 µM |
| GVGLASTLW | 18.8 | 12.6 |  |
| LTWLAILAV |  |  | IC50 (HLA-A*02:01): 4.09 µM |
